Earlier results, collected in paper PMC5010500 (Journal of molecular biology, 2016).

Molecular target: Keap1 Kelch domain (Homo sapiens) (UniProt Q14145)
Assay: ITC
Details: cited from earlier work

Sequence of Keap1 Kelch domain (Homo sapiens) (Q14145 321-609): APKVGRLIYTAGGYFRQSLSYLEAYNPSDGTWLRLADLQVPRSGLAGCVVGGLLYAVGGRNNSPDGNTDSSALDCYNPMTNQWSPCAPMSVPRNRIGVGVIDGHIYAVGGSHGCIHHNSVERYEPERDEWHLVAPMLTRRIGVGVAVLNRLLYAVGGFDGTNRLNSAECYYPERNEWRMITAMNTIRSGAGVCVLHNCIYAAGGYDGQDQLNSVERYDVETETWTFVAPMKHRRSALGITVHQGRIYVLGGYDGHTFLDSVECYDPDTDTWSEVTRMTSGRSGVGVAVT
Sequence of mVP24 (P35256 whole entry): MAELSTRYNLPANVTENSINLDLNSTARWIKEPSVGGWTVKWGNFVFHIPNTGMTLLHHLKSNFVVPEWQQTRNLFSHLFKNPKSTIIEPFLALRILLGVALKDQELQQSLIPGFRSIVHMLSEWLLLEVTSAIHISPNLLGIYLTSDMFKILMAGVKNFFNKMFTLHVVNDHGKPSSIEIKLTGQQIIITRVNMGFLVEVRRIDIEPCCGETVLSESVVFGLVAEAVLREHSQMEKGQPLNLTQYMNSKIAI

For mVP24 (from UniProt P35256), the Kd is given as 160 nM.
